Consider three molecules from patent publication US20200384109A1 (published 2020).

What all share (test): SET
Assay [1] has as its target BKV serotype III (ST3) virus-like particles (VLPs) (UniProt P14996 1-362).
The target in assay [2] is BKV serotype II (ST2) virus-like particles (VLPs) (UniProt P14996 1-362).
The target of assay [3] is BKV serotype IV (ST4) virus-like particles (VLPs) (UniProt P14996 1-362).
The target of assay [4] is BKV serotype I (ST1) virus-like particles (VLPs) (UniProt P03088 1-362).

B1: NOV796 (antibody, V domains shown)
VH: QVQLVQSGPGLVKPSETLSLTCSVSGGSISGYYWSWIRQPPGKGLEWIGLIYESGSANYNPSLKSRVTISLDTSKNQFSLKLKSVTAADTAVYYCARRVRGWSYGMDVWGQGTTVAVSS
VL: DIVLTQSPGTLSLSPGETATLSCRASQILSSSFLAWFQQIPGQAPRLLIYAASSRATGIPDRFSGSGSGTDFSLTISRLEPEDFAVYYCQHYGSSPPWTFGQGTKVEIKR
A word on the Kd: it is a measure of binding affinity in units of concentration. As for B1, the dissociation constant (Kd) in assay [1] was determined as 0.007 nM; in assay [2], 0.006 nM; in assay [3], 0.0009 nM; in assay [4] it was 0.003 nM.

B2: NOV581 (antibody, V domains shown)
VH: QVQLVESGGGLVQPGGSLRLSCVASGFTFSGYNMHWVRQAPGKGLEWVSYISNSGRTIYYADSVKGRFTLSRDNAKNSLYLQMNSLRAEDTAVYFCARDRDPQWLGNDALQIWGQGTMVTVSS
VL: EIVLTQSPGTLSLSPGERATLSCRASQSVSSGYLAWYQQKPGQAPRLLIYGASSRATGIPDRFSGSGSGTDFTLTISRLEPEDFAVYYCQQYGTSRKTFGQGTKVEIKR
On to B2, for which the Kd was 0.092 nM in assay [1], 0.069 nM in assay [2], above 6.6 nM in assay [3] and 0.044 nM in assay [4].

B3: NOV530 (antibody, V domains shown)
VH: QVQLQESGPGLVKPSQTLSLTCTVSGGSISGGGYYWSWIRQHPGKGLEFIGYIYYNRGTYYNPALKSRLTISVDTSKNDFSLKLSSVSAADTAVYYCARCVLGGYGSDAFDRWGQGTTVTVAS
VL: EIVLTQSPVTLSLSPGERAILSCRASQSVSSHLAWYQQKPGQAPRLLIYDASSRANGIPARFSGSGSGTDFTLTISSLAPEDFAVYYCQQRSSWPPSLTFGGGTKVEIRR
Consider B3, for which the Kd in assay [4] came to 0.015 nM.
